Results on one molecule are retold here after PMC12215968.

The target in the assay is T1, nucleoside-disphosphate kinase B (NME2) (human (endogenous in HEK293)), P22392.
T1 chain: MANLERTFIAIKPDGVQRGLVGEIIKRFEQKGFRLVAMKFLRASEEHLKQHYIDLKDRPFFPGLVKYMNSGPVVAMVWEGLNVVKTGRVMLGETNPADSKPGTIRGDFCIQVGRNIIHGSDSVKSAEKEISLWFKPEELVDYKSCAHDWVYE
As to the kind of experiment: cross-linking; in vivo: intact 293 HBTH-CSN2 cells, 1 mM TSTO in PBS pH 7.4, 1 h, room temperature; SEC-HpHt separation of peptides, LC-MSn. The following applies: remark: other sources report otherwise.

By stoichiometry N is commonly meant a count of units in the complex or per binding partner.

B1: nucleoside-disphosphate kinase B (NME2), P22392 1-152 (natural protein)
chain: MANLERTFIAIKPDGVQRGLVGEIIKRFEQKGFRLVAMKFLRASEEHLKQHYIDLKDRPFFPGLVKYMNSGPVVAMVWEGLNVVKTGRVMLGETNPADSKPGTIRGDFCIQVGRNIIHGSDSVKSAEKEISLWFKPEELVDYKSCAHDWVYE
Take B1: the stoichiometry N is 3.
